This assay addresses endogenous β-catenin of HEK293 cells (human (endogenous in HEK293)) (UniProt P35222).

Here are results for one substance from publication PMC3795062.

Chain of UniProt P35222 (P35222 whole entry): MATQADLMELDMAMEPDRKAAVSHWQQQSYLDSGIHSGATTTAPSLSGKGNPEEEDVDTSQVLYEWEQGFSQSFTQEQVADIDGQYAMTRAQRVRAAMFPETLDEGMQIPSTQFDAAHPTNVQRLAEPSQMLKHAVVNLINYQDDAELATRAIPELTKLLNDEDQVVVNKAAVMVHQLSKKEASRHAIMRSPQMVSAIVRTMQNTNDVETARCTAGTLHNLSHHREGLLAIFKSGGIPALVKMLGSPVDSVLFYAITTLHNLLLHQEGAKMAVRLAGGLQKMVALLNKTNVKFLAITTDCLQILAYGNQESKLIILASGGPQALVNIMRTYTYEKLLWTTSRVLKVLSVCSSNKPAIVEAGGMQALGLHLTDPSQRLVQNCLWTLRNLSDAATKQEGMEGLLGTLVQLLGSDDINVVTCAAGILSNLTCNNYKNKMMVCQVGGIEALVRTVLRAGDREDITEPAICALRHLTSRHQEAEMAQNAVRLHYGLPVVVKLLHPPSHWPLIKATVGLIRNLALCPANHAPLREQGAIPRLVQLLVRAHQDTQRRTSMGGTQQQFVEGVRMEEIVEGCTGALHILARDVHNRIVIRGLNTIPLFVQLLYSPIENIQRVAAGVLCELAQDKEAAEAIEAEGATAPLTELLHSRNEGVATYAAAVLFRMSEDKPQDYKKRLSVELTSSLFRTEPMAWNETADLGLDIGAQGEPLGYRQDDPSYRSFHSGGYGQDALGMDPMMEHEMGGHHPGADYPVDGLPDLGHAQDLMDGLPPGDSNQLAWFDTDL

In the case of “WT-Nef expressed in HEK293 cells (natural protein)”, the inhibition of the TopFlash (TCF-luciferase) reporter, TopFlash/FopFlash ratio, HEK293 cells with Wnt-conditioned media, 50 ng Nef plasmid was found to be 40%.
